Measurements from PMC7840982, “Purification of Crimean–Congo hemorrhagic fever virus nucleoprotein and its utility for serological diagnosis” (Scientific Reports, 2021).

Target: the molecule itself
Test: negative-stain transmission electron microscopy

B1: Crimean–Congo hemorrhagic fever virus nucleoprotein (strain IbAr10200), recombinant, untagged (natural protein)
chain: MENKIEVNNKDEMNRWFEEFKKGNGLVDTFTNSYSFCESVPNLDRFVFQMASATDDAQKDSIYASALVEATKFCAPIYECAWVSSTGIVKKGLEWFEKNAGTIKSWDESYTELKVDVPKIEQLTGYQQAALKWRKDIGFRVNANTAALSNKVLAEYKVPGEIVMSVKEMLSDMIRRRNLILNRGGDENPRGPVSHEHVDWCREFVKGKYIMAFNPPWGDINKSGRSGIALVATGLAKLAETEGKGIFDEAKKTVEALNGYLDKHKDEVDRASADSMITNLLKHIAKAQELYKNSSALRAQSAQIDTAFSSYYWLYKAGVTPETFPTVSQFLFELGKQPRGTKKMKKALLSTPMKWGKKLYELFADDSFQQNRIYMHPAVLTAGRISEMGVCFGTIPVANPDDAAQGSGHTKSILNLRTNTETNNPCAKTIVKLFEVQKTGFNIQDMDIVASEHLLHQSLVGKQSPFQNAYNVKGNATSANII
notes: also called CCHFV NP; NP
B1: binds.
